Results on 1 molecule are retold here after US20230357340A1 (APRILBIO, published 2023).

What is called Kd is the concentration at which binding is half-saturated. The term koff denotes the rate constant with which the complex falls apart. As a reminder, the kon is the second-order rate constant of association.

The target in assay [1] is T1, recombinant human IL-18 (human, UniProt Q14116 37-193).
T1 sequence (looked up): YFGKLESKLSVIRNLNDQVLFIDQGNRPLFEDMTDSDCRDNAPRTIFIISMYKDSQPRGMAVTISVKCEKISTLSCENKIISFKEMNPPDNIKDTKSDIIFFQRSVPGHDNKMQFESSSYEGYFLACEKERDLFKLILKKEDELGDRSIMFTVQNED
Description: cell-based or functional assay.

In assay [2] the target is T2, recombinant mouse IL-18 protein (mouse, UniProt P70380 36-192).
T2 sequence (looked up): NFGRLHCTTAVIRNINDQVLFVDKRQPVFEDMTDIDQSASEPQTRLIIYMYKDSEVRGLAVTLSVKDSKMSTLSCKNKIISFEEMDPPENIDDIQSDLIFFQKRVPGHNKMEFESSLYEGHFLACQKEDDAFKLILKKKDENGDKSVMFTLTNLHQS
The assay can be described thus: cell-based or functional assay.

Assay [3] deals with T1, recombinant human IL-18. Description: SPR KD of this filing compared with a literature BIAcore value (Kim et al. 2000). As to the method: (§1) Surface Plasmon Resonance (SPR) assay was performed by Wide River Institute of Immunology (Seoul National University, Seoul, KR) to measure the binding affinity, equilibrium dissociation constant (KD), of APB-R3 to recombinant human IL-18 (Prospec) and human serum albumin (Sigma) by using BiaCore™ T200 (GE Healthcare), Sensor Chip CM5 (Cytiva), and HBS-EP+(Cytiva), as a running buffer. APB-R3 was immobilized by using Amine Coupling Kit (GE Healthcare) in pH 4.5 and the analyte of human IL-18 was diluted and prepared at 62.5 nM, 31.3 nM, 15.6 nM, 7.8 nM, 3.9 nM, and 1.95 nM, and the analyte of human serum albumin was diluted and prepared at 1,250 nM, 625 nM, 313 nM, 156 nM, 78 nM, 39 nM, and 19.5 nM. Kinetics between APB-R3 and human IL-18 or human serum albumin was analyzed by 1:1 binding fitting.
In general terms: SPR reads the build-up and loss of mass on a sensor chip optically.

For assay [4], the target named is T1, recombinant human IL-18. Description: SPR, BiaCore T200, APB-R3 amine-coupled on CM5 chip, human IL-18 as analyte, 1:1 fit. The procedure:
as §1

The next assay addresses T3, human serum albumin (human, UniProt P02768 25-609).
T3 construct: also called HSA; Human serum albumin (Sigma)
Description: SPR, BiaCore T200, APB-R3 amine-coupled on CM5 chip, human serum albumin as analyte, 1:1 fit. As to the method:
as §1

T3 sequence (P02768 25-609 limits assumed): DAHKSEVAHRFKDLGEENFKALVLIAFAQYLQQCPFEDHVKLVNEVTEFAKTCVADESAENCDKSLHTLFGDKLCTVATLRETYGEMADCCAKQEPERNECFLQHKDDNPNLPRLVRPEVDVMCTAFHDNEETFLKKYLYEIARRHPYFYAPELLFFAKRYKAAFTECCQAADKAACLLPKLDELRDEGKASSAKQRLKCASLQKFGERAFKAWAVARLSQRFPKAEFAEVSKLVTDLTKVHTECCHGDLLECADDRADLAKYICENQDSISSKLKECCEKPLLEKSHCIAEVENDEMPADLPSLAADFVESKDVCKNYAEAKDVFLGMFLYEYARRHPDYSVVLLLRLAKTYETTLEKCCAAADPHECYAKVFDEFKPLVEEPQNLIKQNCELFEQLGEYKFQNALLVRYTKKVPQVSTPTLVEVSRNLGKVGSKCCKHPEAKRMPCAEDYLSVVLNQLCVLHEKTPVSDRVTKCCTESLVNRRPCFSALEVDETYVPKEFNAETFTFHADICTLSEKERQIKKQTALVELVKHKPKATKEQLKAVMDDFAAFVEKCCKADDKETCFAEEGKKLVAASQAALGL

B1: APB-R3 (recombinant fusion protein of anti-serum albumin Fab SL335 and human IL-18BP; heavy chain SL335H-peptide linker-IL-18BP, light chain SL335L) (other)
heavy: QVQLVQSGGGPVKPGGSLRLSCAASGFMFRAYSMNWVRQAPGKGLEWVSSISSSGRYIHYADSVKGRFTISRDNAKNSLYLQMNSLRAEDTAVYYCARETVMAGKALDYWGQGTLVTVSSASTKGPSVFPLAPSSKSTSEGTAALGCLVKDYFPEPVTVSWNSGALTSGVHTFPAVLQSSGLYSLSSVVTVPSSSLGTQTYICNVNHKPSNTKVDKKVEPKSSGSAPAPGSTPVSQTTTAATASVRSTKDPCPSQPPVFPAAKQCPALEVTWPEVEVPLNGTLSLSCVACSRFPNFSILYWLGNGSFIEHLPGRLWEGSTSRERGSTGTQLCKALVLEQLTPALHSTNFSCVLVDPEQVVQRHVVLAQLWAGLRATLPPTQEALPSSHSSPQQQG
light: DIVLTQSPGTLSLSPGETATLSCRASQSVGSNLAWYQQKPGQAPRLLIYGASTGATGVPARFSGSRSGTDFTLTITSLQPEDFATYYCQQYYSFLAKTFGQGTQLEIKRTVAAPSVFIFPPSDEQLKSGTASVVCLLNNFYPREAKVQWKVDNALQSGNSQESVTEQDSKDSTYSLSNTLTLSKADYEKHKVYACEVTHQGLSSPVTKSFNRGES
notes: The IL-18BP part is glycosylated; also called APB-R3 protein
Regarding B1, the “IC50 of inhibition of IL-18-induced IFN-γ production in KG-1 cells” value with recombinant human IL-18 [1] is 0.0419 nM. Moreover, the “IC50 (read off the curve); mouse IL-18-induced IFN-γ secretion by mouse CD4+ T cells” value in assay [2] was approximately 0.4 nM. The “fold higher binding affinity than human IL-18BPa (literature KD 399 pM)” value with recombinant human IL-18 [3] was approximately 6 fold. Besides, in the assay with recombinant human IL-18 [4], the Kd was found to be 0.0609 nM, the off-rate constant (koff) came to 2.48e-05 s⁻¹ and the kon amounted to 406000 M⁻¹ s⁻¹. Moreover, in the assay with human serum albumin, the affinity, expressed as Kd, was 16.8 nM; the koff is 0.00157 s⁻¹; the kon was 93800 M⁻¹ s⁻¹.
